The source of these data is US20250388641A1 (CUGENE, published 2025).

Test [1] concerns the target T1, huIL-15Rβ-6His (human, UniProt P14784 27-240, limits assumed).
T1 construct: Coated on the ELISA plate; also called hull-15Rβ-6His; IL-15Rβ subunit
T1 sequence: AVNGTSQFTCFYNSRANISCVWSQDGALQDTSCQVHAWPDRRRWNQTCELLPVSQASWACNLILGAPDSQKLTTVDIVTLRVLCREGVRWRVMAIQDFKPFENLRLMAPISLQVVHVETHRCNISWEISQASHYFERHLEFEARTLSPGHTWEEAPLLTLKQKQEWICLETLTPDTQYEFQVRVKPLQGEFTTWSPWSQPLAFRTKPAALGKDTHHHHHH
The test is described as follows: ELISA binding EC50 relative to wild type P-0153. How it is done: (§1) The binding activity was tested in ELISA assay. Briefly, Nunc Maxisorp (ThermoFisher) plates were coated overnight at 4° C. with hull-15Rβ-6His at 1 ug/well (100 μl/well) in bicarbonate buffer pH 9.4 (ThermoFisher). After washing 3 times with PBS/0.05% Tween20, plates were incubated with SuperBlock (300 μl/well) at room temperature for 2 hrs. to block nonspecific binding. After washing, IL-15 compounds each at 3-fold serial dilutions with blocking buffer were added to the plates (100 μl/well) and incubated at room temperature for 1 hr. After washing, the Fc fusions were detected by 1 hr. incubation at room temperature with a goat anti-human IgG Fc secondary antibody conjugated with horseradish peroxidase (HRP) at 1:5000 dilution in blocking buffer (ThermoFisher) (100 μl/well). After washing, TMB substrate (ThermoFisher) was added (100 μl/well). Plates were sealed and incubated 5-20 min at room temperature in dark. Reaction was stopped by adding 2N sulfuric acid (Ricca Chemical) (50 μL/well) and absorbance was read at 450-590 nm.

Test [2] addresses T1, huIL-15Rβ-6His. The test is described as follows: ELISA, huIL-15Rβ-6His coated on plate, anti-human IgG Fc-HRP detection. How it is done: as §1
In general terms: An ELISA detects its analyte on a solid surface through an enzyme-linked reagent.

Test [3] has as its target T1, huIL-15Rβ-6His. As to the kind of experiment: ELISA binding EC50 relative to wild type (3.9 nM). How it is done:
as §1

The target in test [4] is T1, huIL-15Rβ-6His. As to the kind of experiment: ELISA binding to IL-15Rβ, relative to wild type (repeats Table 3). How it is done:
as §1

B1: P-0178, IL-15/IL-15Rα heterodimeric Fc fusion, IL-15i3 (… insertion after N95) (Fc fusion)
chain 1: DKTHTCPPCPAPEAAGAPSVFLFPPKPKDTLMISRTPEVTCVVVDVSHEDPEVKFNWYVDGVEVHNAKTKPREEQYNSTYRVVSVLTVLHQDWLNGKEYKCKVSNKALPAPIEKTISKAKGQPREPQVYTLPPCREEMTKNQVSLSCAVKGFYPSDIAVEWESNGQPENNYKTTPPVLDSDGSFFLVSKLTVDKSRWQQGNVFSCSVMHEALHNHYTQKSLSLSPGEPKSSDKTHTSPPSPNWVNVISDLKKIEDLIQSMHIDATLYTESDVHPSCKVTAMKCFLLELQVISLESGDASIHDTVENLIILANNSLSSNGNVTESGCKECEELEEKNGSSGSSGGSIKEFLQSFVHIVQMFINTS
chain 2: DKTHTCPPCPAPEAAGAPSVFLFPPKPKDTLMISRTPEVTCVVVDVSHEDPEVKFNWYVDGVEVHNAKTKPREEQYNSTYRVVSVLTVLHQDWLNGKEYKCKVSNKALPAPIEKTISKAKGQPREPQVCTLPPSREEMTKNQVSLWCLVKGFYPSDIAVEWESNGQPENNYKTTPPVLDSDGSFFLYSKLTVDKSRWQQGNVFSCSVMHEALHNHYTQKSLSLSPGEPKSSDKTHTSPPSPITCPPPMSVEHADIWVKSYSLYSRERYICNSGFKRKAGTSSLTECVLNKATNVAHWTTPSLKCIRDPALVHQRPAPP
As a reminder, the EC50 is the concentration needed to bring the measured effect to its halfway point. Regarding B1, the Fold change in the test with huIL-15Rβ-6His [1] amounted to 36 fold. In the test with huIL-15Rβ-6His [2], this molecule yielded an EC50 of 23.1 nM.

B2: P-0181, IL-15/IL-15Rα heterodimeric Fc fusion, IL-15m3 (Q108S, D30T, V31Y, H31E) (Fc fusion)
chain 1: DKTHTCPPCPAPEAAGAPSVFLFPPKPKDTLMISRTPEVTCVVVDVSHEDPEVKFNWYVDGVEVHNAKTKPREEQYNSTYRVVSVLTVLHQDWLNGKEYKCKVSNKALPAPIEKTISKAKGQPREPQVYTLPPCREEMTKNQVSLSCAVKGFYPSDIAVEWESNGQPENNYKTTPPVLDSDGSFFLVSKLTVDKSRWQQGNVFSCSVMHEALHNHYTQKSLSLSPGEPKSSDKTHTSPPSPNWVNVISDLKKIEDLIQSMHIDATLYTESTYEPSCKVTAMKCFLLELQVISLESGDASIHDTVENLIILANNSLSSNGNVTESGCKECEELEEKNIKEFLQSFVHIVSMFINTS
chain 2: DKTHTCPPCPAPEAAGAPSVFLFPPKPKDTLMISRTPEVTCVVVDVSHEDPEVKFNWYVDGVEVHNAKTKPREEQYNSTYRVVSVLTVLHQDWLNGKEYKCKVSNKALPAPIEKTISKAKGQPREPQVCTLPPSREEMTKNQVSLWCLVKGFYPSDIAVEWESNGQPENNYKTTPPVLDSDGSFFLYSKLTVDKSRWQQGNVFSCSVMHEALHNHYTQKSLSLSPGEPKSSDKTHTSPPSPITCPPPMSVEHADIWVKSYSLYSRERYICNSGFKRKAGTSSLTECVLNKATNVAHWTTPSLKCIRDPALVHQRPAPP
B2 came in with an EC50 in the test with huIL-15Rβ-6His [2] of 5.57 nM. In the test with huIL-15Rβ-6His [3], this molecule registered a Fold change of 1.4 fold. Besides, the “Fold change in binding EC50” value with huIL-15Rβ-6His [4] is 1.4 fold.
